# Results published in the supplement of paper PMC10724198.
# ± gives the standard deviation of the averaged measurements.
# Tested on: Saccharomyces cerevisiae
# Experiment: protein stability index of tFT-peptide fusion (C-terminal peptide) (PSI (0-1 scale)); higher = more stable (slower turnover)
# Conditions: genetic background: wild type; temperature: 30 C
# 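Further: PSI is a weighted mean of sequencing reads over stability bins, variants kept only with over 10 reads, mCherry proximal and sfGFP distal, peptide attached via GGGS linker.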
row,Sequence,protein stability index
1,PPPPPPPLTSLP,0.7175 ± 0.0013
2,PPPPPPPPHPPP,0.559 ± 0.0068
3,PPPPPPPPHSPP,0.672 ± 0.035
4,PPPPPPPRPSFP,0.696 ± 0.041
5,PPPPPPSLPLPP,0.6709 ± 0.0044
6,PPPPPRPPYPIP,0.735 ± 0.011
7,PPPPPSAPAPLH,0.6963 ± 0.0021
8,PPPPPSPAPGIP,0.66 ± 0.055
9,PPPPPSSFPFPP,0.656 ± 0.049
10,PPPPPTFPPPRS,0.817 ± 0.025
11,PPPPPTPLPSTL,0.727 ± 0.038
12,PPPPPTPPSSTP,0.713 ± 0.068
13,PPPPPTPTPPYR,0.6952 ± 0.0014
14,PPPPRLPARLAP,0.77 ± 0.16
15,PPPPRPPFPRAF,0.698 ± 0.0051
16,PPPPRPPPLPTR,0.703 ± 0.021
17,PPPPRPPRPPPA,0.671 ± 0.12
18,PPPPSLPPPPRS,0.693 ± 0.035
19,PPPPSSLPPPPC,0.691 ± 0.012
20,PPPPSSPFPHAS,0.697 ± 0.03
21,PPPPSSPPHLPF,0.651 ± 0.018
22,PPPPVPLPPPRL,0.713 ± 0.021
23,PPPPVPPPPSPL,0.6974 ± 0.0036

row,Sequence,protein stability index
1,PPPPYARHTALI,0.691 ± 0.032
2,PPPQSPPLLLVL,0.548 ± 0.021
3,PPPRFRLSSFPT,0.701 ± 0.021
4,PPPRPGFCLFLP,0.674 ± 0.05
5,PPPRPRYLHPPS,0.719 ± 0.035
6,PPPRRPPPRLLS,0.705 ± 0.11
7,PPPSAPLPPLPL,0.714 ± 0.019
8,PPPSHLGSLDPL,0.661 ± 0.02
9,PPPSPPLPPHSP,0.7619 ± 0.0011
10,PPPSPPRPLLPV,0.701 ± 0.023
11,PPPSSELTFLHY,0.797 ± 0.067
12,PPPTPLLLSHLL,0.709 ± 0.068
13,PPPTPPRPPSPP,0.656 ± 0.015
14,PPPTPTPPSQPT,0.681 ± 0.012
15,PPPVPPPPAHTP,0.681 ± 0.091
16,PPPVPPPWPSPF,0.661 ± 0.047
17,PPPYRPPPSSPG,0.661 ± 0.04
18,PPQLSRHVSTRP,0.754 ± 0.0084
19,PPQPRSHPPHLS,0.594 ± 0.086
20,PPQSPPPGSPPP,0.649 ± 0.013
21,PPRASPFPTPPP,0.579 ± 0.04
22,PPRFCPPLAPSV,0.681 ± 0.0095
23,PPRFLPFPPLPL,0.75493 ± 0.00067

row,Sequence,protein stability index
1,PPRLVPPTPPSS,0.65 ± 0.064
2,PPRPPAALPRLL,0.714 ± 0.07
3,PPRPPLSPPRSA,0.718 ± 0.014
4,PPRPRVLPYPPL,0.746 ± 0.028
5,PPRQLPFLAPSP,0.709 ± 0.046
6,PPRRPSPPSPHP,0.67196 ± 0.00055
7,PPRSPPSLPFPP,0.634 ± 0.0066
8,PPRTHRPPTPPQ,0.7212 ± 0.0063
9,PPSLCPPPSLLF,0.733 ± 0.013
10,PPSLLLCPLFTS,0.602 ± 0.075
11,PPSLPLLLPPCT,0.649 ± 0.019
12,PPSLPPLFLRAP,0.667 ± 0.0091
13,PPSLPPLPFSTP,0.7352 ± 0.0065
14,PPSLPPLSPPLA,0.736 ± 0.02
15,PPSNAFEETLRT,0.7 ± 0.015
16,PPSPLPQPRPQT,0.695 ± 0.014
17,PPSPPPPPASPP,0.6805 ± 0.0015
18,PPSPPPVRPHPP,0.587 ± 0.068
19,PPSPPSPPPSAP,0.704 ± 0.0093
20,PPSPRLFRFLPP,0.631 ± 0.074
21,PPSPSPPSPPPP,0.656 ± 0.007
22,PPSPSPPSPPSP,0.654 ± 0.032
23,PPSQRPPPPPPL,0.704 ± 0.023

row,Sequence,protein stability index
1,PPSRPLSVLPPP,0.6863 ± 0.0055
2,PPSSPALPSDTP,0.694 ± 0.013
3,PPSSPCLRPSPP,0.683 ± 0.037
4,PPSSPPPTIPAH,0.642 ± 0.029
5,PPSSRPPVRSPP,0.6903 ± 0.0014
6,PPSSSPPHTPFP,0.6557 ± 0.0011
7,PPSTPPPSPPTP,0.725 ± 0.072
8,PPSTRPYRLFPL,0.682 ± 0.048
9,PPSVPTPCPVPI,0.696 ± 0.067
10,PPSWTPPSPLPL,0.727 ± 0.06
11,PPTFPPHSYLHP,0.652 ± 0.043
12,PPTLPFSARSPP,0.659 ± 0.036
13,PPTLPVPSPSPL,0.822 ± 0.25
14,PPTPHPSTPALP,0.714 ± 0.075
15,PPTPPPPSPLAP,0.73 ± 0.034
16,PPTSPPLAPPPL,0.643 ± 0.062
17,PPTVSRPPHLPT,0.69 ± 0.048
18,PPVLQPLLALAL,0.535 ± 0.015
19,PPVLVPAHHRPD,0.651 ± 0.014
20,PPVPDSFAAFLR,0.743 ± 0.089
21,PPVPPPHASPAP,0.709 ± 0.05
22,PPVPPPLPSPPP,0.712 ± 0.025
23,PPVRRPAHATTG,0.722 ± 0.038

row,Sequence,protein stability index
1,PPVSHPSPFPLP,0.653 ± 0.0095
2,PPWPLVVQPSPP,0.703 ± 0.041
3,PPYAPSPSPPSH,0.6936 ± 0.0029
4,PPYPLHPARPPY,0.702 ± 0.036
5,PPYPPETPPVHP,0.724 ± 0.037
6,PPYPPGLPSLPP,0.689 ± 0.043
7,PQGAYLFTSTCI,0.753 ± 0.054
8,PQGGREYIYSPQ,0.718 ± 0.019
9,PQHFARSITPPP,0.64 ± 0.097
10,PQPPFTHGLIPS,0.706 ± 0.023
11,PQPPLYPPPSLP,0.675 ± 0.036
12,PQPPPRSPPSYL,0.75 ± 0.049
13,PQSKWQWHSGLT,0.692 ± 0.065
14,PQSPVCDLESRL,0.666 ± 0.11
15,PRAHIDWALTVM,0.548 ± 0.065
16,PRALLPPSPPSP,0.635 ± 0.09
17,PRAPQNEHQTKG,0.667 ± 0.059
18,PRASSPPPPTAS,0.666 ± 0.024
19,PRCCDIEIESGR,0.68 ± 0.027
20,PRDSLMRLDCRL,0.691 ± 0.022
21,PRDSPPPPPPPP,0.699 ± 0.027
22,PREFLVYDGVRV,0.6382 ± 0.0059
23,PRFPLPLPPPSP,0.7356 ± 0.0037

row,Sequence,protein stability index
1,PRHGSPASPRPP,0.636 ± 0.086
2,PRHPLAPLPLPS,0.724 ± 0.026
3,PRIGEARNLCYK,0.6816 ± 0.006
4,PRIGPAPLPRLS,0.714 ± 0.043
5,PRKTRSTTTRKS,0.593 ± 0.038
6,PRLHRRPAYTFI,0.606 ± 0.022
7,PRLLPSTCEREV,0.618 ± 0.066
8,PRLLSTYAGSKW,0.723 ± 0.012
9,PRLPLPSRPSPR,0.655 ± 0.064
10,PRLPSPPGAPPP,0.726 ± 0.011
11,PRLSPLPPPSFP,0.628 ± 0.045
12,PRNPLFSPPLPD,0.752 ± 0.0099
13,PRPGPPPPPPSP,0.713 ± 0.035
14,PRPLALPFCKLW,0.808 ± 0.14
15,PRPLPAPPQRNL,0.628 ± 0.017
16,PRPPLPHQRPRS,0.746 ± 0.13
17,PRPPRSPLPSSL,0.7 ± 0.041
18,PRPQTSAHAETG,0.644 ± 0.022
19,PRPRPRSGWILL,0.696 ± 0.036
20,PRRFPPPSPSPP,0.713 ± 0.085
21,PRRPAFPPPGLP,0.705 ± 0.072
22,PRRQDSRLEQPD,0.713 ± 0.0077
23,PRRYPPPSPRTS,0.704 ± 0.016

row,Sequence,protein stability index
1,PRSLSLLPPSSP,0.734 ± 0.037
2,PRSPPPPAQPFV,0.705 ± 0.042
3,PRSSPPPPPPPP,0.681 ± 0.035
4,PRSSSPPPRSPP,0.669 ± 0.016
5,PRTPPQQEPRRP,0.709 ± 0.054
6,PRVLPFPSFLFF,0.657 ± 0.022
7,PRVPSSPNPPPI,0.805 ± 0.025
8,PRWYVSFRTDDW,0.709 ± 0.15
9,PSALGYFRWAVG,0.68 ± 0.042
10,PSAPRPSPPALP,0.855 ± 0.11
11,PSAPSLPPFFPP,0.644 ± 0.04
12,PSDLFGIQQSLL,0.764 ± 0.018
13,PSEPGPPRVSTP,0.647 ± 0.08
14,PSFFLLRVFVPS,0.524 ± 0.0061
15,PSFSPLPLPSIV,0.728 ± 0.039
16,PSGAHLAHLLWL,0.719 ± 0.053
17,PSGGAVEGMGGE,0.668 ± 0.059
18,PSGHQAPEMQYL,0.667 ± 0.022
19,PSGSNPPRTIPT,0.713 ± 0.017
20,PSKLNLSRKPEC,0.677 ± 0.018
21,PSLFFLPPPPSP,0.695 ± 0.0096
22,PSLGLQAPTPCP,0.679 ± 0.012
